From PMC4298015

Key:
GST-Gli1ZF-WT = GST-Gli1ZF-WT (UniProt P08151 242-424); test: EMSA
GST-Gli1ZF-K350A = GST-Gli1ZF-K350A (UniProt P08151 242-424, K350A); test: EMSA
Chain of GST-Gli1ZF-K350A (P08151 242-424 K350A): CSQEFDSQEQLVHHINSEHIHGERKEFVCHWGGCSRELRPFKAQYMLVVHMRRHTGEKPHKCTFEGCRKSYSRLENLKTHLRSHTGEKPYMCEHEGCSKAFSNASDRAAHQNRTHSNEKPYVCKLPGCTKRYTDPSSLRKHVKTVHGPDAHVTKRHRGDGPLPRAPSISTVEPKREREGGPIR

Chain of GST-Gli1ZF-WT (P08151 242-424): as the sequence (P08151 242-424 K350A) above, with A109K counted along it

B1: GliBS (dsDNA)
DNA 1: TTGCCTACCTGGGTGGTCTCTCCACTT
DNA 2: AAGTGGAGAGACCACCCAGGTAGGCAA
binding result (GST-Gli1ZF-WT): binds | binding result (GST-Gli1ZF-K350A): no binding
